This note sets out measurements from US20040254364A1.

Assay [1] has as its target Manduca sexta brush border membrane vesicles (BBMV). Briefly: 125I-labelled toxin added to 10 µg of BBMV with 100-fold excess of unlabeled Cry1Ac.
Assay [2] has the same target. Briefly: 125I-labelled toxin added to 10 µg of BBMV with 100-fold excess of unlabeled Cry1Ac, 98,242 cpm added.
For assay [3] the target is unchanged. Briefly: 125I-labelled toxin added to 10 µg of BBMV, no competitor, 98,242 cpm added.
Assay [4] has the same target. The assay can be described thus: 125I-labelled toxin on 10 µg of BBMV, competitor 100-fold excess of unlabeled Cry1Ac.
Assay [5] shares this target. The assay can be described thus: 125I-labelled toxin added to 10 µg of BBMV, no competitor.
For assay [6] the target is unchanged. Briefly: 125I-labelled phage on 10 µg of BBMV, competitor 100-fold excess of unlabeled Cry1Ac.
Assay [7] has the same target. The assay can be described thus: micropanning on 100 µg of BBMV with an excess of free Cry1Ac as competitor, yield relative to BBMV without competitor.
Assay [8] has the same target. Briefly: 125I-labelled phage added to 10 µg of BBMV with 100-fold excess of unlabeled Cry1Ac.
The target is the same in assay [9]. The assay can be described thus: micropanning on 100 µg of BBMV; control sample, set to 1.0 by definition.
Assay [10] has as its target Bovine serum albumin (bovine) (UniProt P02769). Briefly: micropanning in microtiter wells; control sample, set to 1.0 by definition.
Assay [11] has as its target Manduca sexta brush border membrane vesicles (BBMV). Briefly: 125I-labelled phage added to 10 µg of BBMV with 100-fold excess of unlabeled Cry1Ac, 105,252 cpm added.
The target is the same in assay [12]. The assay can be described thus: 125I-labelled phage added to 10 µg of BBMV, no competitor, 105,252 cpm added.
Assay [13] shares this target. Briefly: 125I-labelled phage added to 10 µg of BBMV, no competitor.
Assay [14] shares this target. The assay can be described thus: 125I-labelled control phage added to 10 µg of BBMV with 100-fold excess of unlabeled Cry1Ac.
Assay [15] shares this target. The assay can be described thus: 125I-labelled control phage added to 10 µg of BBMV, no competitor.
Assay [16] shares this target. The assay can be described thus: 125I-labelled control phage added to 10 µg of BBMV, no competitor, 62,319 cpm added.
Assay [17] shares this target. The assay can be described thus: 125I-labelled control phage added to 10 µg of BBMV with 100-fold excess of unlabeled Cry1Ac, 62,319 cpm added.

Sequence of Bovine serum albumin (bovine) (P02769 25-607 limits assumed): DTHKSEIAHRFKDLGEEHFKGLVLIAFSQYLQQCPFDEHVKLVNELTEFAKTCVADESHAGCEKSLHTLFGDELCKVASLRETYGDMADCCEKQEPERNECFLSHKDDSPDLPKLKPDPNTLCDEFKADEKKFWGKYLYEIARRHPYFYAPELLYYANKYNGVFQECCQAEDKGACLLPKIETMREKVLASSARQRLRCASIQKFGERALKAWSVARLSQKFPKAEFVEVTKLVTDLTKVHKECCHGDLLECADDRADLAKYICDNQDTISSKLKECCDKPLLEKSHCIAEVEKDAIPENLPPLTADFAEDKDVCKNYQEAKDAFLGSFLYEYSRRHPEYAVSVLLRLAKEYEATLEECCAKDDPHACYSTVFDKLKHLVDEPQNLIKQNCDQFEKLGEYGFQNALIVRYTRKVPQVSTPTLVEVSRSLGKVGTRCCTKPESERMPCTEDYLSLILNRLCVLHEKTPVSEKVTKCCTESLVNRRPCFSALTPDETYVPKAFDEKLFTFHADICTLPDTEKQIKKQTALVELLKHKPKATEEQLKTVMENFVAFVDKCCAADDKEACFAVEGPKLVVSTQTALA

Consider “purified, trypsin-activated HD-73 Cry1Ac toxin (65 kDa) from Bacillus thuringiensis subsp. kurstaki (from UniProt P05068 29-623)”, for which the figures for the % cpm bound in [1] and in assay [5] were 4.3% and 12.9%, respectively. Besides, the mean cpm bound (n = 2) in [2] stood at 4260 cpm; in assay [3], 12700 cpm. The same substance gave a % competition in [4] of 66.5%.

In turn, “1Ac-fUSE5 phage (filamentous fd phage displaying the Cry1Ac-cpIII fusion protein) (from UniProt P05068 1-611; P03661 48-424)” displayed a % competition in [6] of 8.5%. The relative yield (relative to control sample) in assay [7] is 1.7; in [9], 1; in assay [10], 1. The % cpm bound in [8] was 10.7%; in assay [13], 11.7%. Besides, the values for the mean cpm bound (n = 2) in assay [11] and in assay [12] were 11200 cpm and 12300 cpm, respectively.

For “WT-fUSE5 phage (fUSE5 vector phage without insert, grown in JM109) (from UniProt P03661 19-424)”, the % cpm bound in assay [14] worked out at 7.6%; in [15], 6.1%. Besides, the relative yield (relative to control sample) in assay [7] was determined as 0.24; in assay [9], 1; in assay [10], 1. Moreover, the mean cpm bound (n = 2) in assay [16] came to 3780 cpm; in [17], 4740 cpm.
